Some results are limits rather than exact numbers.

This note sets out measurements from PMC3751641, “Mena/VASP and αII-Spectrin complexes regulate cytoplasmic actin networks in cardiomyocytes and protect from conduction abnormalities and dilated cardiomyopathy” (Cell Communication and Signaling : CCS, 2013).

Experiment [1] has as its target T1, SH3i, αII-Spectrin splice variant, endogenous in adult mouse heart (mouse (endogenous in mouse heart), UniProt P16546 1-2472).
T1 construct: source: endogenous, adult mouse heart lysate
Put plainly: co-IP; adult mouse heart lysate incubated with 5 μg purified anti-Mena, anti-αII-Spectrin or anti-SH3i antibodies, then protein A-sepharose; washed in lysis buffer; Western blot; GST-specific antibodies as control. The conditions noted are these: partners not purified. For orientation: A western blot detects proteins with antibodies after separation by electrophoresis.

In experiment [2] the target is T2, GST-α9A (α9 repeat of the αII-Spectrin splice variant SH3i, with the alternatively spliced 20 amino acids) (mouse, UniProt P16546 893-1088).
T2 construct: mouse αII-Spectrin, splice variant SH3i (protein ID AAI50942), amino acids Q893-E1088: the α9 repeat with the SH3 domain and the 20-residue insert T1053-L1072; numbers count on: SH3i, AAI50942; cDNA subcloned into the pGEX-6P2 vector
The experiment in a line: pull-down; 5 μg GST or equimolar GST-fusion proteins immobilised on glutathione sepharose, incubated with cleared adult mouse heart lysate (40 mM Hepes-NaOH pH 7.4, 75 mM NaCl, 1% NP40, protease inhibitors); blot with anti-Mena. To be noted: one partner purified.

B1: Mena (mammalian Enabled) (natural protein, mouse (endogenous in mouse heart), UniProt Q03173-3 1-541, looked up)
chain: MSEQSICQARAAVMVYDDANKKWVPAGGSTGFSRVHIYHHTGNNTFRVVGRKIQDHQVVINCAIPKGLKYNQATQTFHQWRDARQVYGLNFGSKEDANVFASAMMHALEVLNSQEAGPTLPRQNSQLPAQVQNGPSQEELEIQRRQLQEQQRQKELERERMERERLERERLERERLERERLEQEQLERQRQEREHVERLERERLERLERERQERERERLEQLEREQVEWERERRMSNAAAPASAETPLNPELGDSSASEPGLQAASQPAESPTPQGLVLGPPAPPPPPPLPSGPAYASALPPPPGPPPPPPLPSTGPPPPPPPPPPLPNQAPPPPPPPPAPPLPASGIFSGSTSEDNRPLTGLAAAIAGAKLRKVSRVEDGSFPGGGNTGSVSLASSKADAGRGNGPLPLGGSGLMEEMSALLARRRRIAEKGSTIETEQKEDRNEDAEPITAKAPSTSTPEPTRKPWERTNTMNGSKSPVISRPKSTPSSQPSANGVQTEGLDYDRLKQDILDEMRKELAKLKEELIDAIRQELSKSNTA
notes: mouse Mena, endogenous; two isoforms exist in the mouse heart, the general one (~80 kDa, 541 aa) and the neuronal splice variant (~140 kDa); source: endogenous, adult mouse heart lysate
For B1, in experiment [1], the “fold more Mena precipitated than by general αII-Spectrin-specific antibodies” value worked out at 8 fold. For the same molecule, in experiment [2], the “fold more Mena precipitated than by α9 or SH3” value was no less than 10 fold.
